Assay results: PMC3668522 (FEBS Open Bio, 2013)

Biological target: the molecule itself
Assay: cross-linking; SDS-PAGE of the purified CTD polypeptide: 16-kDa dimer band beside the 8-kDa monomer band; dimer formation stimulated by the oxidizing agent Cu(II)-(1,10-phenanthroline)3 and cleaved by dithiothreitol (disulfide bond)

B1: C-terminal domain (CTD) polypeptide of Arabidopsis thaliana metal tolerant protein 1 (AtMTP1) (domain or fragment, UniProt Q9ZT63 320-398, looked up)
chain: MESTPREIDATKLEKGLLEMEEVVAVHELHIWAITVGKVLLACHVNIRPEADADMVLNKVIDYIRREYNISHVTIQIER
B1 was tested, and the “stoichiometry N” value was 2.
